Source: ChEMBL document CHEMBL4680222, “Sensitive fluorogenic substrates for sirtuin deacylase inhibitor discovery” (Eur J Med Chem, 2020)

Tests used:
[1] = system: CC(=O)N[C@@H](CC(C)C)C(=O)NCC(=O)N[C@@H](CO)C(=O)N[C@@H](CCCCNC(=O)CCC(=O)O)C(=O)Nc1ccc2c(C)cc(=O)oc2c1; test: (§1) Substrate activity at human N-terminal His-tagged SIRT5 (34 to 302 residues) expressed in Escherichia coli assessed as ratio of Kcat to Km measured after 1 hr in presence of NAD+ and trypsin by Michaelis-Menten kinetic model based fluorescence assay
[2] = system: CC(=O)N[C@@H](CO)C(=O)N[C@@H](CC(C)C)C(=O)NCC(=O)N[C@@H](CCCCNC(=O)CCC(=O)O)C(=O)Nc1ccc2c(C)cc(=O)oc2c1; test: as §1
[3] = system: Cc1cc(=O)oc2cc(NC(=O)[C@H](CCCCNC(=O)CCC(=O)O)NC(=O)OCc3ccccc3)ccc12; test: as §1
[4] = system: CC(=O)N[C@@H](Cc1cnc[nH]1)C(=O)N[C@@H](Cc1ccccc1)C(=O)N[C@@H](CO)C(=O)N[C@@H](CCCCNC(=O)CCC(=O)O)C(=O)Nc1ccc2c(C)cc(=O)oc2c1; test: as §1
[5] = system: CC(=O)N[C@@H](CC(C)C)C(=O)NCC(=O)N[C@@H](CO)C(=O)N[C@@H](CCCCNC(=O)CCC(=O)O)C(=O)Nc1ccc2c(C)cc(=O)oc2c1; test: (§2) Substrate activity at human N-terminal His-tagged SIRT5 (34 to 302 residues) expressed in Escherichia coli assessed as Km measured after 1 hr in presence of NAD+ and trypsin by Michaelis-Menten kinetic model based fluorescence assay
[6] = system: CC(=O)N[C@@H](CO)C(=O)N[C@@H](CC(C)C)C(=O)NCC(=O)N[C@@H](CCCCNC(=O)CCC(=O)O)C(=O)Nc1ccc2c(C)cc(=O)oc2c1; test: as §2
[7] = system: Cc1cc(=O)oc2cc(NC(=O)[C@H](CCCCNC(=O)CCC(=O)O)NC(=O)OCc3ccccc3)ccc12; test: as §2
[8] = system: CC(=O)N[C@@H](Cc1cnc[nH]1)C(=O)N[C@@H](Cc1ccccc1)C(=O)N[C@@H](CO)C(=O)N[C@@H](CCCCNC(=O)CCC(=O)O)C(=O)Nc1ccc2c(C)cc(=O)oc2c1; test: as §2
[9] = system: CC(=O)N[C@@H](CC(C)C)C(=O)NCC(=O)N[C@@H](CO)C(=O)N[C@@H](CCCCNC(=O)CCC(=O)O)C(=O)Nc1ccc2c(C)cc(=O)oc2c1; test: (§3) Substrate activity at human N-terminal His-tagged SIRT5 (34 to 302 residues) expressed in Escherichia coli assessed as Kcat measured after 1 hr in presence of NAD+ and trypsin by Michaelis-Menten kinetic model based fluorescence assay
[10] = system: CC(=O)N[C@@H](CO)C(=O)N[C@@H](CC(C)C)C(=O)NCC(=O)N[C@@H](CCCCNC(=O)CCC(=O)O)C(=O)Nc1ccc2c(C)cc(=O)oc2c1; test: as §3
[11] = system: Cc1cc(=O)oc2cc(NC(=O)[C@H](CCCCNC(=O)CCC(=O)O)NC(=O)OCc3ccccc3)ccc12; test: as §3
[12] = system: CC(=O)N[C@@H](Cc1cnc[nH]1)C(=O)N[C@@H](Cc1ccccc1)C(=O)N[C@@H](CO)C(=O)N[C@@H](CCCCNC(=O)CCC(=O)O)C(=O)Nc1ccc2c(C)cc(=O)oc2c1; test: as §3
[13] = system: CC(=O)N[C@@H](CC(C)C)C(=O)NCC(=O)N[C@@H](CO)C(=O)N[C@@H](CCCCNC(=O)CCC(=O)O)C(=O)Nc1ccc2c(C)cc(=O)oc2c1; test: (§4) Substrate activity at human N-terminal His-tagged SIRT5 (34 to 302 residues) expressed in Escherichia coli assessed as Vmax measured after 1 hr in presence of NAD+ and trypsin by Michaelis-Menten kinetic model based fluorescence assay
[14] = system: CC(=O)N[C@@H](CO)C(=O)N[C@@H](CC(C)C)C(=O)NCC(=O)N[C@@H](CCCCNC(=O)CCC(=O)O)C(=O)Nc1ccc2c(C)cc(=O)oc2c1; test: as §4
[15] = system: Cc1cc(=O)oc2cc(NC(=O)[C@H](CCCCNC(=O)CCC(=O)O)NC(=O)OCc3ccccc3)ccc12; test: as §4
[16] = system: CC(=O)N[C@@H](Cc1cnc[nH]1)C(=O)N[C@@H](Cc1ccccc1)C(=O)N[C@@H](CO)C(=O)N[C@@H](CCCCNC(=O)CCC(=O)O)C(=O)Nc1ccc2c(C)cc(=O)oc2c1; test: as §4

NAD-dependent protein deacylase sirtuin-5, mitochondrial (Homo sapiens), Q9NXA8, sequence (Q9NXA8 whole entry): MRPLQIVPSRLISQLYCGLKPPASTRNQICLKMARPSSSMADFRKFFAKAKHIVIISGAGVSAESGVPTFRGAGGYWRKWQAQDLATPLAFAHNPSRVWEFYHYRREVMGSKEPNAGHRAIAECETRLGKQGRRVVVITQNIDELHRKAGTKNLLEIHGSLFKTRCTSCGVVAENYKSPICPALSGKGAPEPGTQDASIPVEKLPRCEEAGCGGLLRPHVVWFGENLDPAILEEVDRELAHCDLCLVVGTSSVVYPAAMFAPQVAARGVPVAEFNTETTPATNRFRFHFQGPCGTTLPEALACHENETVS

Q: What does the source list for “NAD-dependent protein deacylase sirtuin-5, mitochondrial (Homo sapiens), Q9NXA8”?
A: kcat/Km [1]: 817 M⁻¹ s⁻¹; kcat/Km [2]: 1440 M⁻¹ s⁻¹; kcat/Km [3]: 160 M⁻¹ s⁻¹; kcat/Km [4]: 815 M⁻¹ s⁻¹; Km [5]: 47.6 µM; Km [6]: 31.6 µM; Km [7]: 13.3 µM; Km [8]: 57.5 µM; kcat [9]: 38.8 10^-3/s; kcat [10]: 45.5 10^-3/s; kcat [11]: 2.6 10^-3/s; kcat [12]: 46.9 10^-3/s; Vmax [13]: 116 nM/min; Vmax [14]: 136 nM/min; Vmax [15]: 21.7 nM/min; Vmax [16]: 141 nM/min
